From the DeepSol protein solubility set come the findings set out here.

The series in a line: soluble on expression in E. coli; label from the status in PepcDB or PDB records.
Regarding “MAGDPMITETQLTAIQTYALQKLAHDHSGHGRDHLQRVNRLARRLAKDEGANLNLTLAAAWLHDVIDDKLMANPAKAHQDLIVQLNAQNVTADDQTAIFAIIDHMSFSKSFNGPQKLSLEGQVVQDADRLDAIGAIGIARALYYSGHVGEKIYDPAIAPREHMTREQYRHQPGTAINHFYEKLFKLAALMNTDTAKALAAHRTAVMHEFVDQFKAEWTADDKALEHHHHHH”, the “soluble on expression in E. coli” value is reported as “soluble”.
Under “MAGDPMITVVGVRFKKAGKIYYFSPGDLNINKGDDVIVETARGIEYGNCVIGLKQVGEESIVSPLKSVIRVATDEDEIKYRENKNKEKEAFNICLSKIKKHELVMKLIDVEYTFDNNKIIFYFTAEGRVDFRELVKDLASVFRTRIELRQIGVRDEAKMIGGFGVCGRPMCCALYLGDFAPVSIKMAKEQNLSLNPSKISGVCGRLMCCLNYEQETYETIRKRMPKVGSIVSTKEYGKAEVVDNNIIKEAVKIKFTAEDGESISEAEVHIKDLKLISGSYEGNVDESQIKLELEDVDAKEVKELFKTDLEHHHHHH” stands “not soluble”; under “MAGDPMKVFVVNLDKDKDKKEKIKNECRNAELDYEIISAVDGRELSYNELKSKVHPVSLNYLSKGEIGCVLSHQRIYKRILDDDIDYALILEDDVELSQDIKVFLKEFLSVKDKNKGDVFLLYPSGLRFLNRRINVSHDYFFYEAYNSSCAHGYIISNKAAKKLIRINTPIILVADAWLWFYQISLLKVYVLNKELVRAYDVDKSLSTIETERSLLLDEKEKHQMQIIKKQPLYYLIKYYHKYIRRLFINKDKLEHHHHHH”, “soluble”; under “MAGDPMVRLNVKPTRMELNNLKERLTTAERGHKLLKDKRDELMRRFISLIRENNQLRKEVESYLIDNLKSFAVAKSLKNSQMVEELFSIPSKEIELFVEKENIMSVTVPRMHMNITSQNENSEYSYLSSNSEMDDVFATMNSLIYKLLRLAEVEKTCQLMADEIEKTRRRVNGLEYSIIPNLSETIHYIELKLEEAERANLVRIMKVKLEHHHHHH”, “not soluble”.
Then “MAGDSTDKAFQNFAYLLFLRNILTKSNFSETKNKPEAYNQFLFQKLKKILNLFQILQFILENIHCKPGDRIAILFAYSNDLDRNVVKNVWNTADFGFYSHFLVFANVRFDVRQEEEILFHYSYLNATSSVFSKLPDSSLGFGNNATGSDSLKTIDVGKFYSNNQVPVCGSIVLILSKRYPNELKILEVSRKVQEHHGIVHVISSVFPSGGTQSKALYKLTSRTNGICAFQEDSQFSEVSDFINISSKYYDGWHLLSHIVGSLPISGTPYPIYSVNPRVSGLGSLVLPSLSVPFSGRFYFVVTVQDHGPIDTFRSINLSWYNAKSRSSNHFLISNGQKYEINREEWFDLDPVIYNMTLNYSYLTFQDIQIRVYSSRPPEDWLPCCDSTN”, with “not soluble”; and “MAGEAGQPSEPLNLLAGMAAAPWDYDFFQALRRIECESPQLPRLGHSVRLADDPLRLGQKPDCTFAPSTLASVSQAGTAAVPRLDQFFFGLTGPNGPLPLHLTEYARERQRNVNDATFKRFMDVFHHRLLTLFYRAWAEARPEISHDRIDDDYWSARLAALSGRGMPSLRGREPLADTARYYYTGHLAAQTRYPDGLRVILAEYFEVPVAVEEYVGQWLELPERSRLGVDSTSLGMDVCLGTHVWDRQHKFRLRLGPLDLDQYQRFLPDGDHFVELAAWVAEYLGEELDWDVNLVLQRHEVPPLGLQGGGRLGFNTWLGDPGQDARDLLLARQYATARPHEHKEKEHE”, with “not soluble”.
Under “MAGKLIANLIVMGSGIIGRAMLQAYRKALDNANKTGVAHETINNIRRASKTMTEQEARQILGVSEQSTWEEIAQRYDNLFERNAKSGSFYLQSKVHRAKECLENVYQKNKQDGTPP” stands “soluble”; under “MAGRKKTTACKLFVLDTNVLLHDPTCLYRFEEHDVFIPIITLEELDTHKKGMSEVARNARQASRFLDDIISGNELNISEGIPLKHASRDAASGKLILQTQAINGTLPSSLPMGKADNQILGIVMALKSHYQGRAVILVSKDINMRIKARALGLEAEDYFNDKVLEDTDVL”, “not soluble”.
For “MAGRLREMRCELSFLKNADGSACFSQGATCIWASCSGPGDVHASKASDEAMTLDISYRANCGDNKFNVLNNIIHSTLSNAINLELFPHTTISVTVHGIQDDGSMGAVAINGACFALLDNGMPFETVFCGVLIVRVKDELIIDPTAKQEAASTGRVLFSVCKGSDGHPEVCAMDAIGHWDFIQLEAAWSLAQPSASAIFDFYKTVMKRKLSVDEQLEHHHHHH”, the “soluble on expression in E. coli” value was “soluble”.
In the case of “MAHHHHHHMADTQPVPATVTSAHGAHAEAFGESFIVTLSSENLRVQLLSHGAALNSVQVRKPHPAASATASASATAEQDDEWLEVCLGYTNPEEALSADAVIGHTIGRYAGRIANGEFEIANTTYTLAKNFGPHNLHGGPVGFQHQEWKYLLSDGRDETGVAFHLVSPHMDQGFPGELFVTATYSIIKSAPVPTLKYVLQASLSDNTPVDMTVINLTNHAYWNLNGVPRPAAADAVAPLPRSIANHYLQLQSKYFAVTDELSIPNGDMRPVEGTPHDYSALRCVAEGMEATKEEGRDGGGYDDPVALETWDSTLREAALVYSPATKLRMQVCTTNPAIVVYTANHLPADASGSKGQRFQQHSAICLECQYFPNSPNVRAFPSTVLKKGEAYNETTIHAFQFMNADITPEEKLLRRQ”, the “soluble on expression in E. coli” value was “soluble”.
Under “MAHHHHHHMAECSGVADDDTTKKLLLEGDSALRQGRSYYQEALAKYTEALTHNPNSIRGLYSRAELLSMLRRRDACMSDLDQLLKLDSKHQRGLVLRSALYSQAGQLKEAVRDVEKLVEVMSEGGKAAKVQEYKAKLQQLRRYAEVWIPLQLKLQAAKQGAVTLSRDEQCACVGFLHDMIREFAKDNAGLRLQRAECALACGDNQAASEELKYVVQREPQNLDAVALGARALRALGALEQARRELRRCLSLDPEFALCAQLHKLVREQIRVTQGVEKALEEKDYGKVLKLIEGAMRFEENPPYKDQLLRWRCDAAVGMQDTKDGLPACDEAIQLYSPEDPTVVSILLQKLELYLMDGNVERAEEMLQRAQQLQPNDGKVNEYKRKMERIKRVGLRKNYYKILGVKKTADSSEIRRAYRHLAKTFHPDKLASQELSKEERAEADKRFRDINEAKEILLDDEKRARYDNGEDPTKPPGQDEHAFHGQPFNFPNEMFGQGGRFQQFYFHFD” stands “not soluble”.
Under “MAHHHHHHMAESAVLTPLSARHTVSPRDRSALATGISTLSSPTEETIEVDGATTTPSLPPETRVNVTEKLSDDGAERWPGDPEPPSQGCVASSSAANAHLPISSPALVRDEGHAHITAADYADRQRLLYHITYLSTQLQRAQLQVEDLTRTVCVLRGAVGDSAAATVAKAAVKEDATSAAVLAAKEERDVHAALQASLALFDPVIAQTQIYRLDDALAQVGLLREAELAQLRKANAALQDHRTFVSRLSEELAQLRSKTATLEQEKQRTETQLTAAVLEVEQLRYEERRLNNRVAGLEELAQDGTWMSNVRVVSAAAASTQASVSQQQPLVRLEREEQLARQALLLHVFWDPVLIAFDAGLTWLSDSAALQAKGSAAQEQPVAPGGAKAFVGERDLISLAQAGILVETPALPTDADLLLLQRQQEEVTQLRSRVQLLQERNRVGQLENERLQFLYEGEVRRNERMAKDHAAQLQQAYDEVVRDRQYIMNKLKQEVEDQIRLAYEDGRAYEQSRAKSRRSQKAFRAGNAVL” stands “not soluble”.
Under “MAHHHHHHMAHVITRINAREILDSRGNPTVEVDLETNLGIFRAAVPSGASTGIYEALELRDNDKSRYLGKGVQKAIKNINEIIAPKLIGMNCTEQKKIDNLMVEELDGSKNEWGWSKSKLGANAILAISMAVCRAGAAANKVSLYKYLAQLAGKKSDQMVLPVPCLNVINGGSHAGNKLSFQEFMIVPVGAPSFKEALRYGAEVYHTLKSEIKKKYGIDATNVGDEGGFAPNILNANEALDLLVTAIKSAGYEGKVKIAMDVAASEFYNSENKTYDLDFKTPNNDKSLVKTGAQLVDLYIDLVKKYPIVSIEDPFDQDDWENYAKLTAAIGKDVQIVGDDLLVTNPTRITKALEKNACNALLLKVNQIGSITEAIEACLLSQKNNWGVMVSHRSGETEDVFIADLVVALRTGQIKTGAPCRSERNAKYNQLLRIEESLGNNAVFAGEKFRLQLN” stands “not soluble”; under “MAHHHHHHMALPPATLQSPAVPDGQQHLGCSGGSGHLSVAALDQSRTPLYSAERRASLCDESGALAAVSLSADASRPTAANFVKGELIGKGSYGAVYRGMQRSNNRIIAMKEIRLPGVVEQQLRQSEKLAATAASPAGVSSPVLPASNSVKGESALAKEVAAIKRELTLLKQLNHPNIVRYLNDEVVDGTLRIYMDYVSGGSVTAALKSYGSFEEPQAAALCFQLLQGLVYMHRRGIIHRDLKGDNLLLETSSQLKIADLGTAKSIFSSATMTTSIVGTAYFMAPEVLQPSGAAVGTAADIWSVGCCLIEMMTGKPPLSDLPNQFTVMMAIGGSATVPLDKYIPADNTWSDEVLDFISQCLRANPAQRPTAVDLLQHSWFAKFLNVMHAPSMSTPATLDSMLTPTAPPIERPFTLSPQRQMVSPICSPNLTAALTPGYAGPQYSSGQPESSASSHTSRERKGKRDKRVSARRHARYSTSGATSATSRRSQESSQASTPQYSSGTRTRDGSAQSASLPRSHSHPGRQQGPSSKRRAHAHIVGHGLPRDDSRQSFSSEQAMPQHTCTPGSGGAGDGSGENKTKTAFLPAITHNGSVAPSPCGYSLDVSRCSRSLKNSGSSREPTKACLYTTDTENKS”, “not soluble”; under “MAHHHHHHMATARSYFYYLDAHGNLFPVTDIKGLIDGTNIPAGPIQLRDRAFLDFFYLRLKRSDVEDAAACSNVSDRREEGELLLHSGAKLTPQEVVQHFPYVSICGPERNFLKAEEAPLVFVNYTSGHPKCKQQNGTLAFGESLWEDFQPQALVVTREGKLFHPITKLKNLIATQNGAGDAVPRGLVEAQVVKKLGLELVCDSAKSGYYVLEWKGQKQRIPYFDEL”, “not soluble”.
“MAHHHHHHMCVSELRRLRGHGRNVYIIYDVAKGGTPPPRHFAPTSGWGMIVVPSPNVANYDEWAKQLQAARVIVNCPDEVDVKAICTWMKQGQDPGKQAEYWRIVEERMKRVGPILRYIFDGESYIDPLGAVNDALLAMKPSDVGEYFTLGGEKTWCSEDPCHKLVKIVRARTDEGAEVFLNASISADIGFRTADRLKKEMCARDLLLLILRSHGALASQALEKFGLRAFMYGEPVSALVKGLNELRSPERDEAQDSVLKVNHQGHPTRAVGLA”: the “soluble on expression in E. coli” value was “soluble”.
Then “MAHHHHHHMDGEALFNHIASCSETGYLTMEDFVRWMSETATDKGQKNYESIDVDERAVMRKALLQLCERLEARCLNSLQMFRLASTMPRAYTERRADIYSLANPHRDALVTPVQLRRCIEEVLGGNPSPREMDALLSFFFPQLPLEEYRSRRDGDLEHALDLKAFQKKYHEMNKLLMLSEPSKQQQQTQQRQQE”, with “soluble”.
Then “MAHHHHHHMDINNIMEEVQAIKVLPHMMFNASKLKVLSDYVNVAFENNEYYDNDVMLTLLRLFCLYPHCYDKDIIKKILICVLYNINNVDMNMYMSLINSSLYDDNIKSVIYIYELIKNCQYKKLWNCINNNIGNEYNNCDYSYLKNDKNFICNIRKYILNTISISFESIYLKNMSEYLNIQDNTQLEQFLNENKWTIKMINHKGKDEQICYNGNIETVQNKKNINTYFTEDNIGSYITKLNH”, with “not soluble”; and “MAHHHHHHMDKGCSDCFFACHRYENWIDNQKEQFLKQRGEYENVINGTSSSSSSVGGKRQTRRTRSISSDDNGYESKFYKKLKERGYSEVKNFFEKLNKEKECQNFDDKGGEFDFNEHVDKDKEYKGTFYHSKYCEVCPGCGVKRDGNDWKEKSGGRCTRKKRYKILDDNNFNGIDVLSFGDKRNEIKQKIDTFCGGSNEEKEKLKEQWKCYEAQYVKEDKKEDEEDEDEVEEEDDLKDAGGLCTLQNKKK”, with “not soluble”.
